What is called kcat is the maximal rate divided by the concentration of active sites. As usually defined, the KM is the substrate concentration at which the rate is half of its maximum.

This is an account of results in the supplement of paper PMC7125110.

First the molecules themselves.
B1: glmS ribozyme (parent)
chain: AUAAAAGCGCCAGAACUACAGAAAUGUAGUUGACGAGGAGGAGGUUUAUCGAAUUUUCGGCGGAUGCCUCCAAA

± gives the standard error. For part of these data: Variants at the floor of the assay were thinned out. A value given as a limit tells only on which side of the number the result lay.

Common to all, as to conditions: with glucosamine-6-phosphate
Series [1] covers variants of B1. Kind of series: kcat; higher = faster cleavage; RNA array. A digest of the protocol:
(§1)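 Barcoded ribozyme variants on sequenced MiSeq chips were transcribed in situ by E. coli RNA polymerase and followed at 37 °C through a hybridised Cy3 probe. Glucosamine-6-phosphate at 40 μM to 10 mM in HEPES/KCl/Mg(OAc)2 buffer was flowed in, and tiles were imaged over ~14 h. Signals were normalised to baseline and to non-cleaving reference variants, and per-tile medians were fit to one- or two-exponential decays to give kobs. Weighted Michaelis–Menten fits across concentrations gave kcat and KM.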

Variants of B1 are the subject of series [2]. Kind of series: self-cleavage kobs at 2500 uM GlcN6P; higher = faster cleavage; RNA array. The method in brief:
as §1

The variants in series [3] derive from B1. Kind of series: self-cleavage kobs at 10000 uM GlcN6P; higher = faster cleavage; RNA array. A digest of the protocol:
as §1

Series [4] covers variants of B1. Nature of the series: KM; higher = weaker cofactor use; RNA array. The method in brief:
as §1

Variants of B1 are the subject of series [5]. Kind of series: self-cleavage kobs at 40 uM GlcN6P; higher = faster cleavage; RNA array. A digest of the protocol: as §1
In series [6] the parent is B1. Nature of the series: self-cleavage kobs at 160 uM GlcN6P; higher = faster cleavage; RNA array. A digest of the protocol: as §1
In series [7] the parent is B1. Kind of series: self-cleavage kobs at 640 uM GlcN6P; higher = faster cleavage; RNA array. A digest of the protocol: as §1

G13A G29U: in the series with glucosamine-6-phosphate [1], the kcat is 5.33e-05 ± 7.9e-06 s⁻¹. The “self-cleavage kobs at 2500 uM GlcN6P” value with glucosamine-6-phosphate [2] turned out to be 4.84e-05 ± 1e-05 s⁻¹. Further, the “self-cleavage kobs at 10000 uM GlcN6P” value with glucosamine-6-phosphate [3] amounted to 4.7e-05 ± 8e-06 s⁻¹.

For A39U U47A, in the series with glucosamine-6-phosphate [1], the kcat is 0.0219 ± 0.0045 s⁻¹. Further, in the series with glucosamine-6-phosphate [4], the KM is 3320 ± 900 µM. Moreover, the “self-cleavage kobs at 40 uM GlcN6P” value with glucosamine-6-phosphate [5] is 0.000309 ± 3.8e-05 s⁻¹. In addition, the “self-cleavage kobs at 160 uM GlcN6P” value with glucosamine-6-phosphate [6] turned out to be 0.000791 ± 0.00013 s⁻¹. The “self-cleavage kobs at 640 uM GlcN6P” value with glucosamine-6-phosphate [7] came out at 0.00397 ± 0.00055 s⁻¹. For the same variant, in the series with glucosamine-6-phosphate [2], the “self-cleavage kobs at 2500 uM GlcN6P” value came to 0.00871 ± 0.0017 s⁻¹. The “self-cleavage kobs at 10000 uM GlcN6P” value with glucosamine-6-phosphate [3] was 0.0166 ± 0.002 s⁻¹.

On to C11A G29U, for which the kcat with glucosamine-6-phosphate [1] worked out at 3.97e-05 ± 4.4e-06 s⁻¹. Moreover, the “self-cleavage kobs at 2500 uM GlcN6P” value with glucosamine-6-phosphate [2] was 3.72e-05 ± 1.1e-05 s⁻¹. Besides, the “self-cleavage kobs at 10000 uM GlcN6P” value with glucosamine-6-phosphate [3] is 3.56e-05 ± 8.9e-06 s⁻¹.

A15C C61U: the kcat with glucosamine-6-phosphate [1] is < 1e-05 s⁻¹. Besides, the “self-cleavage kobs at 40 uM GlcN6P” value in the series with glucosamine-6-phosphate [5] is < 1e-05 s⁻¹. Further, in the series with glucosamine-6-phosphate [6], the “self-cleavage kobs at 160 uM GlcN6P” value is < 1e-05 s⁻¹. In addition, in the series with glucosamine-6-phosphate [7], the “self-cleavage kobs at 640 uM GlcN6P” value was < 1e-05 s⁻¹.

On to G13U C67U, for which, in the series with glucosamine-6-phosphate [1], the kcat is 0.000313 ± 1.9e-05 s⁻¹. Moreover, the KM with glucosamine-6-phosphate [4] stood at 1680 ± 230 µM. Moreover, in the series with glucosamine-6-phosphate [6], the “self-cleavage kobs at 160 uM GlcN6P” value was 2.74e-05 ± 7.6e-06 s⁻¹. For the same variant, in the series with glucosamine-6-phosphate [7], the “self-cleavage kobs at 640 uM GlcN6P” value is 8.78e-05 ± 1.1e-05 s⁻¹. Further, in the series with glucosamine-6-phosphate [2], the “self-cleavage kobs at 2500 uM GlcN6P” value amounted to 0.000177 ± 2e-05 s⁻¹. The “self-cleavage kobs at 10000 uM GlcN6P” value with glucosamine-6-phosphate [3] turned out to be 0.000274 ± 2.4e-05 s⁻¹.

As for U57C A64G, the kcat with glucosamine-6-phosphate [1] is 0.000236 ± 3.1e-06 s⁻¹. Further, in the series with glucosamine-6-phosphate [4], the KM is 3140 ± 87 µM. The “self-cleavage kobs at 640 uM GlcN6P” value with glucosamine-6-phosphate [7] worked out at 3.93e-05 ± 7.8e-06 s⁻¹. The “self-cleavage kobs at 2500 uM GlcN6P” value with glucosamine-6-phosphate [2] is 0.000106 ± 1.3e-05 s⁻¹. The “self-cleavage kobs at 10000 uM GlcN6P” value in the series with glucosamine-6-phosphate [3] worked out at 0.000179 ± 1.7e-05 s⁻¹.

A53G C67G: in the series with glucosamine-6-phosphate [1], the kcat stood at 0.007 ± 0.0028 s⁻¹. The “self-cleavage kobs at 40 uM GlcN6P” value with glucosamine-6-phosphate [5] came to 0.000155 ± 1.6e-05 s⁻¹. In addition, the “self-cleavage kobs at 160 uM GlcN6P” value with glucosamine-6-phosphate [6] was found to be 0.000304 ± 4.6e-05 s⁻¹. In the series with glucosamine-6-phosphate [7], the “self-cleavage kobs at 640 uM GlcN6P” value amounted to 0.00225 ± 0.00035 s⁻¹. Also, in the series with glucosamine-6-phosphate [2], the “self-cleavage kobs at 2500 uM GlcN6P” value amounted to 0.00466 ± 0.00096 s⁻¹. In addition, the “self-cleavage kobs at 10000 uM GlcN6P” value with glucosamine-6-phosphate [3] was determined as 0.00539 ± 0.00069 s⁻¹.

C50U U55A: the kcat in the series with glucosamine-6-phosphate [1] was 8.88e-05 ± 8.3e-06 s⁻¹. In addition, the KM with glucosamine-6-phosphate [4] is 2350 ± 570 µM. In the series with glucosamine-6-phosphate [7], the “self-cleavage kobs at 640 uM GlcN6P” value worked out at 2.43e-05 ± 9.1e-06 s⁻¹. For the same variant, the “self-cleavage kobs at 2500 uM GlcN6P” value with glucosamine-6-phosphate [2] was 4.32e-05 ± 6.8e-06 s⁻¹. In addition, the “self-cleavage kobs at 10000 uM GlcN6P” value with glucosamine-6-phosphate [3] stood at 7.37e-05 ± 9.9e-06 s⁻¹.

C11U U30A: in the series with glucosamine-6-phosphate [1], the kcat was found to be 0.00152 ± 0.00047 s⁻¹. Moreover, in the series with glucosamine-6-phosphate [4], the KM stood at 931 ± 450 µM. Besides, the “self-cleavage kobs at 40 uM GlcN6P” value in the series with glucosamine-6-phosphate [5] came out at 8.01e-05 ± 1.1e-05 s⁻¹. The “self-cleavage kobs at 160 uM GlcN6P” value in the series with glucosamine-6-phosphate [6] came out at 0.000252 ± 4.8e-05 s⁻¹. Also, in the series with glucosamine-6-phosphate [7], the “self-cleavage kobs at 640 uM GlcN6P” value was 0.000433 ± 7.8e-05 s⁻¹. Also, the “self-cleavage kobs at 2500 uM GlcN6P” value with glucosamine-6-phosphate [2] was 0.0011 ± 0.00021 s⁻¹. Further, in the series with glucosamine-6-phosphate [3], the “self-cleavage kobs at 10000 uM GlcN6P” value amounted to 0.0018 ± 0.00027 s⁻¹.

Turning to G40U A48G, in the series with glucosamine-6-phosphate [1], the kcat amounted to 8.97e-05 ± 4.3e-05 s⁻¹. In addition, the “self-cleavage kobs at 40 uM GlcN6P” value with glucosamine-6-phosphate [5] is < 1e-05 s⁻¹. For the same variant, the “self-cleavage kobs at 10000 uM GlcN6P” value with glucosamine-6-phosphate [3] turned out to be 3.18e-05 ± 8.1e-06 s⁻¹.

Turning to A6G C10A, the kcat in the series with glucosamine-6-phosphate [1] was < 1e-05 s⁻¹. The “self-cleavage kobs at 40 uM GlcN6P” value with glucosamine-6-phosphate [5] was < 1e-05 s⁻¹. Further, the “self-cleavage kobs at 10000 uM GlcN6P” value with glucosamine-6-phosphate [3] was < 1e-05 s⁻¹.

Take A39G U57C: the kcat with glucosamine-6-phosphate [1] came out at 0.000566 ± 0.0002 s⁻¹. Further, in the series with glucosamine-6-phosphate [5], the “self-cleavage kobs at 40 uM GlcN6P” value is < 1e-05 s⁻¹. In addition, in the series with glucosamine-6-phosphate [7], the “self-cleavage kobs at 640 uM GlcN6P” value worked out at 5.87e-05 ± 1.5e-05 s⁻¹. The “self-cleavage kobs at 2500 uM GlcN6P” value with glucosamine-6-phosphate [2] amounted to 0.00013 ± 2.3e-05 s⁻¹. For the same variant, in the series with glucosamine-6-phosphate [3], the “self-cleavage kobs at 10000 uM GlcN6P” value was found to be 0.000351 ± 6.4e-05 s⁻¹.

Turning to A48G C68U, the kcat with glucosamine-6-phosphate [1] worked out at 0.000161 ± 4.8e-05 s⁻¹. The “self-cleavage kobs at 160 uM GlcN6P” value with glucosamine-6-phosphate [6] was < 1e-05 s⁻¹. Also, the “self-cleavage kobs at 10000 uM GlcN6P” value with glucosamine-6-phosphate [3] is 4.18e-05 ± 8.3e-06 s⁻¹.

Turning to G51U U69G, the kcat with glucosamine-6-phosphate [1] was 4.26e-05 ± 1.5e-05 s⁻¹. Moreover, the “self-cleavage kobs at 160 uM GlcN6P” value in the series with glucosamine-6-phosphate [6] turned out to be 5.17e-05 ± 1.2e-05 s⁻¹. The “self-cleavage kobs at 640 uM GlcN6P” value in the series with glucosamine-6-phosphate [7] came out at 5.57e-05 ± 1.3e-05 s⁻¹. In the series with glucosamine-6-phosphate [2], the “self-cleavage kobs at 2500 uM GlcN6P” value amounted to 7e-05 ± 1e-05 s⁻¹. The “self-cleavage kobs at 10000 uM GlcN6P” value in the series with glucosamine-6-phosphate [3] worked out at 1.72e-05 ± 8.1e-06 s⁻¹.

Consider U47A U65G, for which the kcat with glucosamine-6-phosphate [1] was determined as 0.00507 ± 0.0003 s⁻¹. Besides, the KM with glucosamine-6-phosphate [4] is 3540 ± 320 µM. In the series with glucosamine-6-phosphate [5], the “self-cleavage kobs at 40 uM GlcN6P” value was determined as 5.62e-05 ± 9.4e-06 s⁻¹. Further, in the series with glucosamine-6-phosphate [6], the “self-cleavage kobs at 160 uM GlcN6P” value is 0.000236 ± 6.6e-05 s⁻¹. Also, the “self-cleavage kobs at 640 uM GlcN6P” value in the series with glucosamine-6-phosphate [7] turned out to be 0.000735 ± 0.00012 s⁻¹. Moreover, the “self-cleavage kobs at 2500 uM GlcN6P” value in the series with glucosamine-6-phosphate [2] came out at 0.00229 ± 0.00035 s⁻¹. For the same variant, the “self-cleavage kobs at 10000 uM GlcN6P” value with glucosamine-6-phosphate [3] was 0.00369 ± 0.00037 s⁻¹.

As to G60A C61A, the kcat with glucosamine-6-phosphate [1] is < 1e-05 s⁻¹. Moreover, in the series with glucosamine-6-phosphate [5], the “self-cleavage kobs at 40 uM GlcN6P” value was < 1e-05 s⁻¹. For the same variant, the “self-cleavage kobs at 160 uM GlcN6P” value with glucosamine-6-phosphate [6] is < 1e-05 s⁻¹.
